Experimental data: doi:10.1101/2019.12.30.891283 (bioRxiv, 2019)

Target: the molecule itself
Test: native MS

B1: enoyl-ACP reductase (FabI) from E. coli (enzyme)
chain: MGFLSGKRILVTGVASKLSIAYGIAQAMHREGAELAFTYQNDKLKGRVEEFAAQLGSDIVLQCDVAEDASIDTMFAELGKVWPKFDGFVHSIGFAPGDQLDGDYVNAVTREGFKIAHDISSYSFVAMAKACRSMLNPGSALLTLSYLGAERAIPNYNVMGLAKASLEANVRYMANAMGPEGVRVNAISAGPIRTLAASGIKDFRKMLAHCEAVTPIRRTVTIEDVGNSAAFLCSDLSAGISGEVVHVDGGFSIAAMNELELK
stoichiometry N: 4
